Patent publication US12466859B2, “Desmoglein 2 (DSG2) binding proteins and uses therefor” (UNIVERSITY OF WASHINGTON THROUGH ITS CENTER FOR …, priority 2013, dated 2025)
Numbering of substitutions follows the chain as printed. Names and notes keep the numbering of the source.

Columns and labels:
Ad3-GFP virus = test: Competition of Ad3-GFP virus infection on HeLa cells; assay type: cell-based, adenovirus serotype 3
Description: (§1) FIG. 3A-3D. Competition of Ad3 virus by dimerized Ad3 knob mutants. FIG. 3A) Relative attachment of ^3H-labeled Ad3 virus in the presence of dimeric fiber knob mutants. 1.8×10^5 HeLa cells were incubated with Ad3 knob mutants at a concentration of 2.5 and 100 μg/ml on ice for 1 hour. Then 400 pfu/cell of ^3H-Ad3 virus was added on ice for another hour. Unbound virus particles were washed away. Attachment of virus particles incubated with PBS was taken as 100%. N=3. FIG. 3B1-3B2) Competition of Ad3-GFP virus infection on HeLa cells. 1.5×10^5 HeLa cells were seeded into 24 well plates. Cells were incubated with the Ad3 knob mutants at increasing concentrations for one hour at room temperature. 100 pfu/cell of Ad3-GFP virus were then added and GFP expression was analyzed 18 hours later by flow cytometry. FIG. 3B1) percentage of GFP positive cells. FIG. 3B2) mean fluorescence intensity. N=3. The standard deviation was less than 10%. FIG. 3C) Relative attachment of ^3H-labeled Ad3 virus in the presence of dimeric fiber knob mutants with multiple mutations. The study was performed as described in FIG. 3B) The standard deviation was less than 10%. FIG. 3D) Competition of Ad3-GFP virus infection on HeLa cells. The study was performed as described in FIG. 3C) The standard deviation was less than 10%.
FIG. 9A1-9C. Analysis of dimeric Ad3 fiber knob mutants with increased affinity to DSG2. FIG. 9A1-9A2) Competition of Ad3-GFP virus infection on HeLa cells with dimeric affinity-enhanced mutant Y250F and JO-1 (dimeric wt Ad3 fiber knob). The experimental setting is as described for FIG. 3C. FIG. 9A1) percentage of GFP positive cells. FIG. 9A2) mean fluorescence intensity. N=3. The standard deviation was less than 10%. […] 100 pfu/cell of Ad3GFP virus were then added and GFP expression was analyzed 18 hours later. […]
Functional validation. […] Transduction was measured based on GFP expression (FIG. 3B). […] Dimeric Ad3 knob mutants with combined mutations were also analyzed for their ability to compete with Ad3 virus for attachment (FIG. 3C) and infection (FIG. 3D).

soluble recombinant DSG2 = target: T1, soluble recombinant DSG2 (Homo sapiens, UniProt Q14126); test: Western blot of dimeric Ad3 fiber knob mutants with soluble recombinant DSG2 as probe; assay type: binding; details: dimerized knob mutants compared to JO-1
T1 construct: Western blot using soluble recombinant DSG2 as a probe; purchased Leinco Technologies, Inc. (St. Louis, MO)
T1 sequence (Q14126 50-609 limits assumed): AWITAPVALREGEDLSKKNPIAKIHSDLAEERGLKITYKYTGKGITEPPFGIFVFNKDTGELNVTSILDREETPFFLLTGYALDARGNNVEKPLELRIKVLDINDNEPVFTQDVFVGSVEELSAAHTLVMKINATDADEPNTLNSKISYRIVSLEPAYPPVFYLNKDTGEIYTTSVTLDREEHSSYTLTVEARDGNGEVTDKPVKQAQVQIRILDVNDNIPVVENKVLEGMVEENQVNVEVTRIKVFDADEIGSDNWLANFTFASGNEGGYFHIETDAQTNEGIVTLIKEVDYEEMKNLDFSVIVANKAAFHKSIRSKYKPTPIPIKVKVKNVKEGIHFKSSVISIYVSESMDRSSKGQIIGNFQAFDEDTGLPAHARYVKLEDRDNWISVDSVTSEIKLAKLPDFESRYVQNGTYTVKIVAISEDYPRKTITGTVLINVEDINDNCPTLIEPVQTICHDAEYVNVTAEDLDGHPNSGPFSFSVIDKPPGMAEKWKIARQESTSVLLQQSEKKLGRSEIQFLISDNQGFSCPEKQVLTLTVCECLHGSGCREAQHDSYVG
Text: FIG. 1A-1F. Residues found to be critically involved in binding to DSG2. FIG. 1A) Shown are the amino acid sequences of the Ad3 and Ad14p1 fiber knob. Beta sheets present in the Ad3 knob (PDB accession number 1H7Z_A) and Ad14 knob (PDB: 3F0Y_A) are indicated by lines. Black arrows indicate residues within the Ad3 fiber knob which, when mutated individually, ablate or reduce binding to DSG2. […] FIG. 1B) Schematic structure of dimeric Ad3 fiber knob mutants. The fiber knob domain and one shaft motif was fused through a flexible linker to a homodimerizing K-coil domain (41). The proteins are self-dimerizing and can be purified by His-Ni-NTA affinity chromatography. FIG. 1C-FIG. 1F) Analysis of binding of dimeric Ad3 fiber knob mutants to soluble DSG2. FIG. 1C and FIG. 1D) Coomassie staining. 10 μg of purified Ad3 fiber knob (unboiled) were loaded per lane. Trimeric forms of the fiber knobs are indicated by an arrow. The gel contained SDS and the loading buffer containing DTT, which caused the disassembly of dimers of trimeric fiber knobs as previously reported (41). FIG. 1E and FIG. 1F): Western blot using soluble recombinant DSG2 as a probe, followed by anti-DSG2-mAb and anti-mouse IgG-HRP. For comparison, JO-1 (0.5 μg/lane) is shown. The Western blots were scanned and signals were quantified.
Western Blot: Mini-PROTEAN precast gels (BIO-RAD, Hercules, CA) with 4-15% gradient polyacrylamide were used. A total of 1 μg protein mixed with 2× loading buffer (10 mM Tris-HCl, pH6.8, 200 mM DTT, 4% SDS, 20% glycerol, 0.2% bromophenol blue) was loaded per lane. Samples were either boiled (B) for 5 min or loaded unboiled (UB). The following running buffer was used: 25 mM Tris, pH8.3, 0.192 M glycine, 0.1% SDS. After electrophoresis, proteins were transferred to nitrocellulose and incubated with recombinant human DSG2 protein and anti-DSG2 antibodies as described previously (42). The Western blots were scanned and quantified using the ImageJ 1.32 software (National Institutes of Health, Bethesda, MD). JO-1 band intensity was set as 100%. […]

3H-labeled Ad3 virus = test: Competition of 3H-labeled Ad3 virus attachment to HeLa cells; assay type: cell-based, adenovirus serotype 3
Description: as §1, with “The study was performed as described in FIG. 3B) The standard deviation was less than 10%. FIG. 3D) Competition of Ad3-GFP virus infection on HeLa cells. The study was performed as described in FIG. 3C) The standard deviation was less than 10%.” left out
Competition assays. […] After the last wash, the supernatant was removed and the cell-associated radioactivity was determined by a scintillation counter. The number of VP bound per cell was calculated by using the virion specific radioactivity and the number of cells.

DSG2 = target: T2, DSG2 (Homo sapiens, UniProt Q14126); test: Surface plasmon resonance of Ad3 fiber knobs on immobilized DSG2; assay type: binding; details: knobs without dimerization domain
T2 construct: Western blot using soluble recombinant DSG2 as a probe; purchased Leinco Technologies, Inc. (St. Louis, MO)
T2 sequence (Q14126 50-609 limits assumed): T1 sequence (Q14126 50-609 limits assumed)
Description: FIG. 7A-7B. SPR analysis of non-dimerized Ad3 fiber knob interactions with DSG2. FIG. 7A) DSG2 was immobilized on sensorchips, and background was automatically subtracted from the control flow cell. The Ad3 fiber knobs (w/o dimerization domain: “noDD”) were injected for 3 minutes at 2.5 μg/ml followed by a 2.5 minutes dissociation period. FIG. 7B) Summary of SPR data. […] The extracted data are resumed in the table. Wt=Ad3 fiber knob without mutations FIG. 8A-8G. Electron microscopy and 3D structure of Ad3 fiber knob mutant JO-2.
Surface Plasmon Resonance: Acquisitions were done on a BIAcore 3000 instrument. HBS-N (GE-Healthcare, Pittsburgh, PA) supplemented with 2 mM CaCl2) was used as running buffer in all experiments at a flow rate of 5 [l/min. Immobilization on CM4 sensorchip (BIAcore) was performed using DSG2 at 10 μg/ml diluted in 10 mM Acetate buffer pH 4.5 injected for 10 minutes on ethyl(dimethylaminopropyl) carbodiimide (EDC)/N-Hydroxysuccinimide (NHS) activated flow-cell. A control flow-cell was activated by (EDC/NHS) and inactivated by ethanolamine. Different concentrations of Ad3 fiber knob proteins were injected for 3 minutes association followed by 2.5 minutes dissociation time, and the signal was automatically subtracted from the background of the ethanolamine deactivated EDC-NHS flow cell. Kinetic and affinity constants were calculated using the BIAeval software.

[1] = even at concentrations of 200 ug/ml

B1: F265L (protein)
chain: MKVSALKEKVSALKEKVSALKEKVSALKEKVSALKEGSGGGSGGGSGGGSNSIALKNNTLWTGPKPEANCIIEYGKQNPDSKLTLILVKNGGIVNGYVTLMGASDYVNTLFKNKNVSINVELYFDATGHILPDSSSLKTDLELKYKQTADFSARGFMPSTTAYPFVLPNAGTHNENYIFGQCYYKASDGALLPLEVTVMLNKRLPDSRTSYVMTFLWSLNAGLAPETTQATLITSPFTFSYIREDD
With B1 the “Inhibition of Ad3-GFP infection of HeLa cells, in words” value (Ad3-GFP virus; pre-incubation with knob, GFP expression) was “least reduced” and the “DSG2 binding in Western blot, in words” value (soluble recombinant DSG2) was “almost completely ablated”.

B2: N186D, D261N, L296R: dimeric Ad3 fiber knob with a combination of all three N186D, D261N, and L296R (protein)
chain: B1 chain with N113D, D188N, L192F, L223R
For B2, the “Inhibition of attachment in the presence of dimeric knob (JO-1 = 100%)” value (3H-labeled Ad3 virus; Ad3 virus attachment to HeLa cells, N=3, averages) was 18.5%, the “Block of Ad3 binding (attachment)” value (3H-labeled Ad3 virus; [1]) was “did not block” and the “Block of Ad3 infection” value (Ad3-GFP virus; [1]) was “did not block”. The “DSG2 binding in Western blot, in words” value (soluble recombinant DSG2) was “highest level of ablation”.

B3: N293S/noDD (protein)
chain: NKLCSKLGNGLTFDSSNSIALKNNTLWTGPKPEANCIIEYGKQNPDSKLTLILVKNGGIVNGYVTLMGASDYVNTLFKNKNVSINVELYFDATGHILPDSSSLKTDLELKYKQTADFSARGFMPSTTAYPFVLPNAGTHNENYIFGQCYYKASDGALFPLEVTVMLNKRLPDSRTSYVMTFLWSLSAGLAPETTQATLITSPFTFSYIREDD
modifications: left off: small tags and cut ends
B3 was tested, and the “association rate to DSG2, in words” value (DSG2) was “lowest when compared to other mutants” and the “dissociation rate, in words” value (DSG2) was “slower dissociation rate”.
